The assay deals with p190RhoGAP-A (endogenous) (human (endogenous in HeLa)) (UniProt Q9NRY4). Put plainly: co-IP.

This passage reports abundance of the complex, percent of total p190 or ECT2, IP/Total (amount co-immunoprecipitated by anti-p190 vs. total protein expressed) and IP/WL (amount co-immunoprecipitated by anti-p190 vs. total protein expressed) results from publication PMC2791401.

UniProt Q9NRY4, sequence (Q9NRY4 whole entry): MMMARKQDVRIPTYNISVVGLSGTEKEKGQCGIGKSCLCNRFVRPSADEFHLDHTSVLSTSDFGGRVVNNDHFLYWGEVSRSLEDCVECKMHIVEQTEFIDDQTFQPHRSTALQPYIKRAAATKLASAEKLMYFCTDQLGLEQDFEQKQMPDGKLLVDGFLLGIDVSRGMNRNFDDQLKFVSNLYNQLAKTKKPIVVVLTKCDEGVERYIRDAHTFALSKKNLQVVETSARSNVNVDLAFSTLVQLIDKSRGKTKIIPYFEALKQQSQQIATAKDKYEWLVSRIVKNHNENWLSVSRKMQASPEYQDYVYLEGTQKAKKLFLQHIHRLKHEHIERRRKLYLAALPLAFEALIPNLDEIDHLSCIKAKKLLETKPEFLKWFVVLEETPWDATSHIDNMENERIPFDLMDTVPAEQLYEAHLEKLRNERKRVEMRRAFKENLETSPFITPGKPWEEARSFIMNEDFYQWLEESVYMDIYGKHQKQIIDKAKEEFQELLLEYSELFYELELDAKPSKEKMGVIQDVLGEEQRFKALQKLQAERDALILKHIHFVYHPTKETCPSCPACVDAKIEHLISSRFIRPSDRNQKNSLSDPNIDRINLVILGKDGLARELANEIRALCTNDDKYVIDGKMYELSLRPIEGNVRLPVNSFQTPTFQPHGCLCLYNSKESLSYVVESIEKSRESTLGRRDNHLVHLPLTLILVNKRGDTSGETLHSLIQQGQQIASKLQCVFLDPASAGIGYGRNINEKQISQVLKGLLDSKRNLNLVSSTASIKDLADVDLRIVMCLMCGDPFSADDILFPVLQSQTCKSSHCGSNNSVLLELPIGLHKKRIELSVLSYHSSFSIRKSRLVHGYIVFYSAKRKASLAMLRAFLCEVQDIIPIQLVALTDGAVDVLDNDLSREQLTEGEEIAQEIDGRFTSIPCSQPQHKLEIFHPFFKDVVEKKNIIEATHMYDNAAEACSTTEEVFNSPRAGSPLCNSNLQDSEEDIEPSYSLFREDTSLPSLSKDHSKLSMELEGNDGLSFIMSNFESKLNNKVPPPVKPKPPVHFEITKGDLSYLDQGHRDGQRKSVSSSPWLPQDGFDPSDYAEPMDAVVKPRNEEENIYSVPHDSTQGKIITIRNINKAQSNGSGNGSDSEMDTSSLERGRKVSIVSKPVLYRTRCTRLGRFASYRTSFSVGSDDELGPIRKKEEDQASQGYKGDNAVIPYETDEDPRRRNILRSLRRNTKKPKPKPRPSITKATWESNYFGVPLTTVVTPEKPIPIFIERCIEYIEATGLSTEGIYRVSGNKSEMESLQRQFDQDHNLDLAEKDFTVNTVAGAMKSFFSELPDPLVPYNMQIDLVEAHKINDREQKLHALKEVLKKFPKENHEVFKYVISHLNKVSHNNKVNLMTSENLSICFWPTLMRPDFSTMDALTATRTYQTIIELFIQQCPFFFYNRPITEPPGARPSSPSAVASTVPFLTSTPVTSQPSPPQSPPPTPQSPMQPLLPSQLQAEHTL

For “FLAG-tagged wild type ECT2 (pCEV29F3-ECT2) (natural protein)”, the abundance of the complex, percent of total p190 or ECT2 lay in the range of 2 to 4%.
In the case of “FLAG-tagged ECT2C (amino acids 414-883) (domain or fragment)”, the IP/Total (amount co-immunoprecipitated by anti-p190 vs. total protein expressed) was found to be 1.5.
“FLAG-tagged ECT2N (amino acids 1-334) (domain or fragment)” yielded an IP/WL (amount co-immunoprecipitated by anti-p190 vs. total protein expressed) of 0.2.
